From patent publication US20160208003A1 (AFFITECH RESEARCH, published 2016)
Several values for one entry are separate records, joined by “and”; a condition that tells them apart may be missing. Equal entries are not always repeated.

B1: thymus and activation regulated chemokine (TARC) (ligand, UniProt Q92583 24-94, looked up)
chain: ARGTNVGRECCLEYFKGAIPLRKLKTWYQTSEDCSRDAIVFVTVQGRAICSDPNNKRVKNAVKYLQSLERS
notes: also called CCL17; biotinylated TARC
B2: macrophage-derived chemokine (MDC) (ligand, UniProt O00626 25-93, looked up)
chain: GPYGANMEDSVCCRDYVRYRLPLRVVKHFYWTSDSCPRPGVVLLTFRDKEICADPRVPWVKMILNKLSQ
notes: also called CCL22; biotinylated MDC

Columns and labels:
[1] = biological target: T1, human CC chemokine receptor 4 (CCR4) (human, UniProt P51679 1-360); test: competition flow cytometry: unlabelled competitor against a fixed amount of biotinylated TARC; cell line not named on the sheet or in the legend
T1 construct: whole, on cells; Always presented on cells; also called CD194; human CCR4
T1 sequence (looked up): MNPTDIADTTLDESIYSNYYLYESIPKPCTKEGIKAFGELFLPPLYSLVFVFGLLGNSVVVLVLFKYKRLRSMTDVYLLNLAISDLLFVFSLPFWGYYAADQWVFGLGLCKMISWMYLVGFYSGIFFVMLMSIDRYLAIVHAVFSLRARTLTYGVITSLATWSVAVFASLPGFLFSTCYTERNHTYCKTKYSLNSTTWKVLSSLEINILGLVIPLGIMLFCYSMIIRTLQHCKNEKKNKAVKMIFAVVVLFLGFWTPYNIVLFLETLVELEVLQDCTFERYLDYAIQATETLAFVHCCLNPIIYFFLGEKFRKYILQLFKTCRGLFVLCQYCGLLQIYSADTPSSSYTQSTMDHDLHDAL

[2] = biological target: T1, human CC chemokine receptor 4 (CCR4); test: flow cytometry competition on CCRF-CEM cells; unlabelled TARC titrated, competitor biotinylated TARC (ca. 20 nM)
Protocol: (§1) The competition binding assays were performed with biotinylated MDC or biotinylated TARC on DT-40-CCR4+ and CCRF-CEM cells. DT40 and CCRF-CEM cells were cultured as described in Example 2. TARC and MDC were biotinylated using standard procedures. The biotinylation process causes some losses, so the concentrations of biotinylated MDC and TARC recited herein are approximate.
(§2) The cells were harvested from culture flasks, washed 2 times with PBS (400×g, 5 min, 4° C.) and resuspended in PBS containing 0.2% BSA and 0.09% NaN3. 1×10^5 cells per well were aliquoted into V-shaped 96-well plates (Greiner Bio-One, Frikenhausen, Germany). Cells were centrifuged (400×g, 5 min, 4° C.) and resuspended in 50 μl IgG, single chain or unlabeled ligand (1:10 dilution series starting on 100/500/26, 4 μg/ml) mixed with a fixed concentration of biotinylated ligand (10 or 20 nM, see legend to FIG. 24). The cells were incubated for 2 hours at 4° C. and mixed with a pipette every 45 min. The cells were washed three times with 150 μl PBS with 0.2% BSA and 0.09% NaN3 and stained with 3 μg/ml streptavidin PE (BD Biosciences) for 45 minutes at 4° C. […] Apparent binding affinities (KD) were calculated according to the following equation derived from previously described methods (Kipriyanov et al, 1997b; Schodin & Kranz, 1993): […]

[3] = biological target: T1, human CC chemokine receptor 4 (CCR4); test: flow cytometry competition on DT-40-CCR4+ cells; unlabelled TARC titrated, competitor biotinylated TARC (ca. 20 nM)
Protocol: as §1, §2

[4] = biological target: T1, human CC chemokine receptor 4 (CCR4); test: flow cytometry competition on DT-40-CCR4+ cells; unlabelled MDC titrated, competitor biotinylated MDC (ca. 10 nM)
Protocol: as §1, §2

[5] = biological target: T1, human CC chemokine receptor 4 (CCR4); test: calculated from the IC50; DT-40-CCR4+ cells, competitor biotinylated MDC
Protocol: as §1, §2

[6] = biological target: T1, human CC chemokine receptor 4 (CCR4); test: competition flow cytometry: unlabelled competitor against a fixed amount of biotinylated MDC; cell line not named on the sheet or in the legend
[7] = biological target: T1, human CC chemokine receptor 4 (CCR4); test: competition flow cytometry on CCRF-CEM cells: unlabelled competitor against ca. 20 nM biotinylated TARC, without BSA, streptavidin-PE [c]
Protocol: as §1, §2

[8] = biological target: T1, human CC chemokine receptor 4 (CCR4); test: competition flow cytometry on DT-40-CCR4+ cells: unlabelled competitor against ca. 20 nM biotinylated TARC, without BSA, streptavidin-PE [a]
Protocol: as §1, §2

[9] = biological target: T1, human CC chemokine receptor 4 (CCR4); test: competition flow cytometry on CCRF-CEM cells: unlabelled competitor against ca. 20 nM biotinylated TARC, with 1 % BSA, streptavidin-PE [d]
Protocol: as §1, §2

[10] = biological target: T1, human CC chemokine receptor 4 (CCR4); test: calculated from the IC50; CCRF-CEM cells, competitor biotinylated MDC
Protocol: as §1, §2

[11] = biological target: T1, human CC chemokine receptor 4 (CCR4); test: competition flow cytometry on DT-40-CCR4+ cells: unlabelled competitor against ca. 20 nM biotinylated TARC, with 1 % BSA, streptavidin-PE [b]
Protocol: as §1, §2

Row | Binder | IC50 (read off the curve) [1] | IC50 [2] | IC50 [3] | IC50 [4] | Kd [5] | IC50 (read off the curve) [6] | IC50 (read off the curve) [7] | IC50 (read off the curve) [8] | IC50 (read off the curve) [9] | Kd [10] | IC50 (read off the curve) [11]
1 | B1 | ~0.3 nM | 43.4 nM and 31.8 nM | 40.9 nM and 34.6 nM |  |  |  |  |  |  |  | 
2 | B2 |  |  |  | 10.8 nM | 0.19 nM | ~20 nM | ~60 nM | ~30 nM | ~7 nM | 0.18 nM | ~30 nM
